Assay results taken from the supplement of paper PMC7877785.
± gives the uncertainty stated by the source.

Experiment: self-splicing fitness, log relative to wild type (ln ratio); higher = more splicing; Tetrahymena group I intron in knt gene, E. coli kanamycin selection, DiMSum; sequences stand for … in CUCUCU…GGAGGGAAAAGUUAUCAGGCAUGCACCUGGUAGCUAGUCUUUAAACCAAUAGAUUGCAUCGGUUUAAAAGGCAAGACCGUCAAAUUGCGGGAAAGGGGUCAACAGCCGUUCAGUACCAAGUCUCAGGGGAAACUUUGAGAUGGCCUUGCAAAGGGUAUGGUAAUAAGCUGACGGACAUGGUCCUAACCACGCAGCCAAGUCCUAAGUCAACAGAUCUUCUGUUGAUAUGGAUGCAGUUCACAGACUAAAUGUCGGUCGGGGAAGAUGUAUUCUUCUCAUAAGAUAUAGUCGGACCUCUCCUUAAUGGGAGCUAGCGGAUGAAGUGAUGCAACACUGGAGCCGCUGGGAACUAAUUUGUAUGCGAAAGUAUAUUGAUUAGUUUUGGAGUACUCGUGGUCG
Method in brief: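 DiMSum derived fitness as the error-weighted combination of fold changes across replicates, kanamycin versus no kanamycin, normalised to wild type. E. coli BL21(DE3) held the library, which randomised all eight P1ex-region intron nucleotides within the knt kanamycin-resistance gene on pET-22b(+). Six replicate transformations grew overnight at 37°C or 30°C on LB agar with or without 25 μg/mL kanamycin, also containing 100 μg/mL carbenicillin, 50 μM IPTG and 0.2% rhamnose, and pooled colonies were amplicon-sequenced on an Illumina HiSeq 2500.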

Row | Sequence | self-splicing fitness (ln) (30 °C) | self-splicing fitness (ln) (37 °C)
1 | UAAUAGCAAUAUUACGUGUG | -1.6 ± 0.073 | -0.917 ± 0.074
2 | UACAAGCAAUAUUACGAACC | – | -0.357 ± 0.23
3 | UACAAGCAAUAUUACGACAU | -1.474 ± 0.012 | -0.59 ± 0.032
4 | UACAAGCAAUAUUACGAGAC | -3.27 ± 0.43 | -1.43 ± 0.23
5 | UACAAGCAAUAUUACGCAGG | -2.78 ± 0.11 | -1.7 ± 0.095
6 | UACAAGCAAUAUUACGCAUC | -2.99 ± 0.16 | -2.02 ± 0.18
7 | UACAAGCAAUAUUACGCAUG | -2.07 ± 0.088 | -0.74 ± 0.086
8 | UACAAGCAAUAUUACGCCCG | 0.87 ± 0.18 | 0.761 ± 0.23
9 | UACAAGCAAUAUUACGCGCC | -1.66 ± 0.13 | -0.798 ± 0.13
10 | UACAAGCAAUAUUACGCUCG | -1.26 ± 0.088 | 0.16 ± 0.11
11 | UACAAGCAAUAUUACGGCGU | -1.14 ± 0.11 | -0.846 ± 0.098
12 | UACAAGCAAUAUUACGGGAG | -3.1 ± 0.12 | -1.49 ± 0.094
13 | UACAAGCAAUAUUACGGGAU | -3.65 ± 0.17 | -1.39 ± 0.11
14 | UACAAGCAAUAUUACGGGCA | -0.0705 ± 0.063 | 0.152 ± 0.072
15 | UACAAGCAAUAUUACGGGCU | -4.2 ± 0.34 | -2.82 ± 0.18
16 | UACAAGCAAUAUUACGGGUA | -1.13 ± 0.072 | -0.839 ± 0.077
17 | UACAAGCAAUAUUACGGGUU | -2.8 ± 0.091 | -1.63 ± 0.097
18 | UACAAGCAAUAUUACGGUAA | -2.12 ± 0.1 | -1.15 ± 0.1
19 | UACAAGCAAUAUUACGGUGC | -3.55 ± 0.26 | -2.35 ± 0.21
20 | UACAAGCAAUAUUACGGUUC | -3.49 ± 0.15 | -1.73 ± 0.13
21 | UACAAGCAAUAUUACGGUUU | -1.86 ± 0.093 | -0.738 ± 0.095
22 | UACAAGCAAUAUUACGUACU | -2.71 ± 0.14 | -1.45 ± 0.13
23 | UACAAGCAAUAUUACGUCCU | -1.16 ± 0.1 | 0.292 ± 0.15
24 | UACAAGCAAUAUUACGUCGC | -2.94 ± 0.11 | -2.51 ± 0.14
25 | UACAAGCAAUAUUACGUCUA | -0.798 ± 0.049 | 0.00361 ± 0.068

Row | Sequence | self-splicing fitness (ln) (30 °C) | self-splicing fitness (ln) (37 °C)
26 | UACAAGCAAUAUUACGUCUC | -1.68 ± 0.1 | -2.24 ± 0.17
27 | UACAAGCAAUAUUACGUGUC | -3.91 ± 0.14 | -1.15 ± 0.094
28 | UACCAGCAAUAUUACGAAUC | -2.37 ± 0.2 | -1.05 ± 0.23
29 | UACCAGCAAUAUUACGAAUG | -0.839 ± 0.055 | -0.00427 ± 0.073
30 | UACCAGCAAUAUUACGACAA | -0.483 ± 0.099 | -0.494 ± 0.09
31 | UACCAGCAAUAUUACGACAG | -1.2 ± 0.056 | -0.278 ± 0.076
32 | UACCAGCAAUAUUACGACGA | -0.586 ± 0.086 | 0.837 ± 0.11
33 | UACCAGCAAUAUUACGAGGG | -3.38 ± 0.2 | -1.3 ± 0.12
34 | UACCAGCAAUAUUACGAGGU | -3.36 ± 0.22 | -3.39 ± 0.23
35 | UACCAGCAAUAUUACGAGUG | -0.127 ± 0.052 | -0.0711 ± 0.067
36 | UACCAGCAAUAUUACGCAAG | -2.3 ± 0.13 | -0.829 ± 0.13
37 | UACCAGCAAUAUUACGCACC | -1.52 ± 0.26 | -0.172 ± 0.21
38 | UACCAGCAAUAUUACGCCAA | -2.05 ± 0.12 | -0.589 ± 0.099
39 | UACCAGCAAUAUUACGCGAU | -2.6 ± 0.17 | -0.608 ± 0.15
40 | UACCAGCAAUAUUACGCGCU | -3.47 ± 0.37 | -1.77 ± 0.22
41 | UACCAGCAAUAUUACGCUCU | -0.618 ± 0.072 | 0.00956 ± 0.082
42 | UACCAGCAAUAUUACGCUGG | -3.35 ± 0.18 | -2.77 ± 0.22
43 | UACCAGCAAUAUUACGCUGU | -3.86 ± 0.17 | -1.36 ± 0.13
44 | UACCAGCAAUAUUACGGCAG | -0.582 ± 0.081 | 0.685 ± 0.1
45 | UACCAGCAAUAUUACGGCGA | -0.21 ± 0.13 | 0.254 ± 0.19
46 | UACCAGCAAUAUUACGGGUG | -3.23 ± 0.097 | -1.78 ± 0.078
47 | UACCAGCAAUAUUACGGUGA | -0.536 ± 0.057 | 0.0523 ± 0.075
48 | UACCAGCAAUAUUACGUCGU | -2.09 ± 0.09 | -2.14 ± 0.12
49 | UACCAGCAAUAUUACGUGAG | -2.27 ± 0.083 | -1.56 ± 0.085
50 | UACCAGCAAUAUUACGUGAU | -1.93 ± 0.063 | -1.41 ± 0.074

Row | Sequence | self-splicing fitness (ln) (30 °C) | self-splicing fitness (ln) (37 °C)
51 | UACCAGCAAUAUUACGUGCC | -3.35 ± 0.24 | -0.584 ± 0.19
52 | UACCAGCAAUAUUACGUGGU | -3.86 ± 0.14 | -2.89 ± 0.16
53 | UACCAGCAAUAUUACGUGUA | -2.59 ± 0.12 | -1.67 ± 0.1
54 | UACCAGCAAUAUUACGUGUG | -1.22 ± 0.046 | -0.527 ± 0.059
55 | UACCAGCAAUAUUACGUUAG | -1.18 ± 0.068 | -1.16 ± 0.067
56 | UACGAGCAAUAUUACGACAU | -3.899 ± 0.031 | -2.47 ± 0.04
57 | UACGAGCAAUAUUACGAUGG | -2.85 ± 0.22 | -2.29 ± 0.24
58 | UACGAGCAAUAUUACGCACG | -2.94 ± 0.2 | -1.3 ± 0.18
59 | UACGAGCAAUAUUACGCAUC | – | -1.96 ± 0.21
60 | UACGAGCAAUAUUACGCGCC | -2.33 ± 0.42 | –
61 | UACGAGCAAUAUUACGCUCG | – | -1.74 ± 0.31
62 | UACGAGCAAUAUUACGGACG | -2.32 ± 0.12 | -1.24 ± 0.15
63 | UACGAGCAAUAUUACGGAUA | -2.3 ± 0.17 | -1.43 ± 0.12
64 | UACGAGCAAUAUUACGGCCA | -1.61 ± 0.21 | -1.85 ± 0.18
65 | UACGAGCAAUAUUACGGGCU | – | -2.43 ± 0.27
66 | UACGAGCAAUAUUACGUACA | -0.833 ± 0.27 | -1.22 ± 0.48
67 | UACUAGCAAUAUUACGAAUA | -1.51 ± 0.18 | -0.474 ± 0.13
68 | UACUAGCAAUAUUACGAUGC | -4.22 ± 0.26 | -2.54 ± 0.3
69 | UACUAGCAAUAUUACGCAGA | -3.67 ± 0.47 | -2.27 ± 0.22
70 | UACUAGCAAUAUUACGCAUU | -3.73 ± 0.21 | -1.81 ± 0.14
71 | UACUAGCAAUAUUACGCCGU | -2.24 ± 0.25 | -2.67 ± 0.48
72 | UACUAGCAAUAUUACGCGAG | -1.86 ± 0.072 | -1.59 ± 0.07
73 | UACUAGCAAUAUUACGCGCA | -0.569 ± 0.071 | 0.207 ± 0.094
74 | UACUAGCAAUAUUACGCGGA | -2.97 ± 0.18 | -1.42 ± 0.16
75 | UACUAGCAAUAUUACGCGGU | -3.43 ± 0.47 | -2.52 ± 0.33

Row | Sequence | self-splicing fitness (ln) (30 °C) | self-splicing fitness (ln) (37 °C)
76 | UACUAGCAAUAUUACGCGUA | -2.63 ± 0.22 | -2.33 ± 0.23
77 | UACUAGCAAUAUUACGCUAC | – | -2.01 ± 0.34
78 | UACUAGCAAUAUUACGCUAG | -3.86 ± 0.25 | -2.08 ± 0.21
79 | UACUAGCAAUAUUACGCUCU | -0.792 ± 0.085 | -0.262 ± 0.1
80 | UACUAGCAAUAUUACGGAUC | -2.66 ± 0.19 | -1.7 ± 0.24
81 | UACUAGCAAUAUUACGGAUG | -0.926 ± 0.077 | -0.112 ± 0.11
82 | UACUAGCAAUAUUACGGCCU | -1.25 ± 0.095 | -0.333 ± 0.11
83 | UACUAGCAAUAUUACGGCGC | -1.6 ± 0.28 | -1.55 ± 0.31
84 | UACUAGCAAUAUUACGGGUA | -2.08 ± 0.14 | -1.84 ± 0.13
85 | UACUAGCAAUAUUACGGUAU | -2.78 ± 0.33 | -2.63 ± 0.36
86 | UACUAGCAAUAUUACGGUCC | -1.59 ± 0.14 | -0.676 ± 0.16
87 | UACUAGCAAUAUUACGUAUU | -4.56 ± 0.29 | -2.24 ± 0.15
88 | UACUAGCAAUAUUACGUCCA | -0.715 ± 0.1 | -0.49 ± 0.13
89 | UACUAGCAAUAUUACGUGUA | -3.12 ± 0.28 | -0.943 ± 0.14
90 | UACUAGCAAUAUUACGUUAU | -3.58 ± 0.18 | -1.45 ± 0.14
91 | UAGAAGCAAUAUUACGACCU | 0.0379 ± 0.17 | -1.35 ± 0.14
92 | UAGAAGCAAUAUUACGACGG | -0.626 ± 0.095 | 0.0889 ± 0.14
93 | UAGAAGCAAUAUUACGCCAA | -1.44 ± 0.29 | -1.39 ± 0.28
94 | UAGAAGCAAUAUUACGCCGU | -2.41 ± 0.23 | -2.68 ± 0.36
95 | UAGAAGCAAUAUUACGCGAC | -3.67 ± 0.32 | -2.08 ± 0.33
96 | UAGAAGCAAUAUUACGCGAG | -0.342 ± 0.12 | -0.636 ± 0.12
97 | UAGAAGCAAUAUUACGCUAG | -1.18 ± 0.13 | -0.412 ± 0.16
